This is an account of results in patent publication US20060014669A1.

The experiment addresses VEGF. Put plainly: cell-based or functional assay.

In the case of “Murine Flk1-Fc (murine Flk1 ectodomain fused to murine IgG2a Fc fragment, adenovirus-expressed) (from UniProt P35918 20-762) (Fc fusion)”, the inhibition of VEGF-induced HUVEC proliferation in vitro, IC50 is 0.1 µg/mL.

Consider “Murine Flt1(1-3) soluble ectodomain with C-terminal 6xHis tag (adenovirus-expressed) (from UniProt P35969 23-328) (receptor)”, for which the inhibition of VEGF-induced HUVEC proliferation in vitro, IC50 is 0.005 µg/mL.
